Measurements reported in the DeepSol protein solubility set.

Assay: soluble on expression in E. coli; label from the status in PepcDB or PDB records
With “MITGETEPACVEDASQLAEQRNGAPVMEAGCAAVPVEANATKRGYWRQRTLHSWFIGRKPQRTCIAVDIDEVLAFFVPELCAFHNKRYGTRLQATDFHSYRFAEVWGGTDTDAIRKVHEFFRTPAFQELQPIPGAKQVLQSRLARFRFVVVTSRQLVIEQETRAWLDKHFSGIFEAIYLGNQWALHPNGEHGTGVGSAAQEPQRLFANRRRKSQVCKACGAAVLIDDLPHNLLDCSENGVFGVLFDFQGQYGWSKSPAFESKDIAVVHSWEAVGELLDRL” the “soluble on expression in E. coli” value was “not soluble”. In the case of “MNFRTDSIDDLDKFKKEFKPVMHLKGDAFNQQLQSLINKYPQIQKNMKSEFIAYYDKEKNRETVKNYAWNLQKSINDIMQSYPSTKFVQFYKDDVSPSMVDGNGRLKSDTNVISIEGGKYDENKLEHHHHHH”, the “soluble on expression in E. coli” value is reported as “soluble”. In the case of “MDFVSEMNKILQMELEQFKEFIQKKLEEDKNYLEKLFWLPNGSQMTVLNYLIEQYSEPKLGIDDANRDLLAKIDFVLHEAKDVNVGEPLHQAIVAGKISLALHLLGVDENNFTPGESEKTDVLSILSKVRKKIEESFNHVKRCFFDVDKRDGYGRTLLSLALDAKRQELLIAILARNPIVHATTLRSSAYVPFQPIHQAVVLDYAEGITLLASMGAQLTNPLGSMRDTPVILAARLGKINALAALLELPTQSLSLESENNHLFEDKQTGHTAVEELCERMANENDKADALRGIAMLICRGAEPPRNEKMRNLLSSNRVAFLKAVSTYLADKPQLVDAFVERCHLRESALHNIVYADHSWGSSIRHLLGVPSEAALIVEELVTRKYSDPSFASENVSSLSTTATENLRSERNPLKLYAEFVRRYTQAYDSQMITNRWSTMRWMIAEGNCDWDTVVRYSKNHPTSRTRIVLNEMFNPIPRVHEDIESQQSSPRVVLK”, the “soluble on expression in E. coli” value is reported as “not soluble”. In the case of “MSLADTLMSDTPFWQRKTLDEMTDAEWESLCDGCGQCCLHKLMDEDTDEIYFTNVACRQLNIKTCQCRHYERRFEFEPDCIKLTRENLPDFEWLPMTCAYRLLAEGKPLPTWHPLLTGSKAAMHGERISVRHIAVKESEVRDWQDHILNKPSWAEEGHHHHHH”, the “soluble on expression in E. coli” value is reported as “not soluble”. For “MSLRTTDDLPNALPPALESMTLLVAAVIVHDQATNRVVLLQRSENAKFAQGMWDLPVGKSEPGEPITETAVRELHEETGLTVKPEALMVAHIIHGSWGVEAPNGFLTVVFATHEWTGEPENREPRKHSQVRWVDADAIPEECVDTTASALHHYLSGGAQVSLDGWLPKEGHHHHHH”, the “soluble on expression in E. coli” value was “soluble”. For “MSLKKKVVIVGGGFTGLNTARILSNRKDVEVTLIDRKNYHLFQPLLYQVAMAALGEGDIATPLRNMLAGYDNVTVFKGNVCNVDLEQKKVKTDFGDIEYDYLVLACGAQHHYFGKNDWEEHAPGLKNLAQASEIRRRVMEAYEAAERTNDMKERKKQLTFVIVGGGPTGVELAGSIGEMSRYTLSKFYRHIDPKLTRIFIVEAAERILGTFSPELSSKATRELEKLGVQVWTSSMVSDVDADGVQIGRERIEAATVLWAAGVKASEIGQNMGVQTDRSGRIMVEADLSLPGHPEVFVGGDQACYTLENGSTLPGMAPVAMQEGKAIGRMILDDLKGKPRKPFKYRDKGQMATIGRNRAIVEIGNLKFDGEGHHHHHH”, the “soluble on expression in E. coli” value was “soluble”. In the case of “MEMAYDFAETKDTAIIFIYRPPVGDIQISPVLEGPRRLRLWNDITISLYKDVYPDIRLIESRSRVEVHLRKVEMVRWGGINGRPADKPQDDGKETMVEDSGDEENPSVMDLFSKIYQRSGDDVRRAMEKSFYESEGTVLSTDWDQVKSKKITRED”, the “soluble on expression in E. coli” value is reported as “not soluble”. With “MAHHHHHHMRGTTKPMLFLCSTAVRLNFFPLGLSAGPLNSHILLPRNNFDGRTTHGMKKIQGQSKDPQMVMSRDELKLRCEYCRFEWIHDTLCVRCPAQPSHDQREMWLHSTWMWGKQQPYKYYKYMPAVRNPRTGMPMAREDARGMNNERRGQGLTTRTLNLEKERRGISRDVSRIGQYNTRWKTRFPFPT” the “soluble on expression in E. coli” value was “not soluble”. With “MKISIRHRYIAKIPALEVTTEEQKNEALPLIVYYHGWQSAKELSLTQARKLAHEGFRVILPDAMNHGERKTEPISTIPSITFWSSIQYNLIEFPVIIHHFHKLGLIKENWIGVGGVSMGGITTSALMTQHPEIQAAACLMGTPYPARYIQRVIQRAKEFAIFVPKDLPLLLSWVHQYDLSQTPERLQERPMLFWHGTEDEKIPYEDMADFEQLVSGKTYARNTQFITEIGERHLVKGETMDLVVDFFKEASKTLEK” the “soluble on expression in E. coli” value was “not soluble”. In the case of “MRSRERNRRPTLDELDRILTYFEQMRDRRRQEIDMLRVIVFALFSTRRQEEITRIRWDLLNESEQSALVTDMKNPGQKYGNDVWCHMPDEAWRVLQSMPKVADEVFPYNSRSVSASFTRACNFLEIEDLHFHDLRHDGVSRLFEMGWDIPKVASVSGHRDWNSMRRYTHLRGNGDPYAGWQWIERVISGPVIEAQVRVKRRAAGRAPLEHHHHHH”, the “soluble on expression in E. coli” value is reported as “not soluble”. In the case of “MGSDKIHHHHHHMTIHKLKEKVASTDFEQHSYAFRRFVLDELRVYIPFAAACFTTIDPESLLSTGTVMDKQLEPIHTLILENEHTGSDYNHYFQLVDSSPHIATLHDATGGNLTASQRYTRILAPAGFHDELRAALIDQGKCWGHLTLFHSKHHSPFSREEQQLVNSLLPAITKKVKRLTFQSTFSPSPNSSHFEAAIMIFSDTFELLSANEAAHSLLSLLREQEQLGEGTFPRPIETLCVKIKATSSSKEEGEIDRWSVCIPAANGQLLTLYASKLTSELLPEQYAVISQNTSPFERLGYSLLYYGLTQREIQIVEQIVNGYTTKQISSHLYISTHTVQDHLKSIFAKMNVNSRRELLSFLNQANK”, the “soluble on expression in E. coli” value is reported as “not soluble”. In the case of “MKDREIFAGLSTTVPFVLRLDGRSFHRFSKDRYKKPYDKVFSDAMVKTARALVTDSGLSPSFAYTFSDEISLYVPAPVFDCRVEKLASVSAAFAASAFTLYAGASEPLAFDARVIPIEEGLFPAYLSWRQAEAWRNHMNGYAQKILQDEGVSPTNAQKQLDGMNAAALHEFAFSRGVNLALTPAWERRGICIYRDVVMRDGYNPIKDEKVSVERTIAVIDEDVPLFKSPEGTAWVLSKIRLEHHHHHH”, the “soluble on expression in E. coli” value is reported as “not soluble”. For “MGSDKIHHHHHHMNAPANFDSLEVGFDVPALPGMDEADIQTPCLVLDLDALERNIKKMGDYARAHGMRHRVHGKMHKSVDVAKLQERLGGAIGVCCQKVSEAEVFARGGIKDVLVSNQVRDPAKIDRLARLPKLGARTIVCVDDPANVADLSAAAQKHDTEIECFVEIDCGAGRCGVTTTEDVVEIAQAIDAAPGLKFTGIQAYQGAMQHLDSYEARKEKLDVAIAQVRDAVEGLKAADLAPELVSGGGTGSYYFESNSGVYNELQCGSYAFMDADYGRILDQDGKRIDQGEWENAFFILTQVMSHAKADKAICDAGLKAQSVDSGLPFIFGRTDVEYVKCSDEHGVIADPDGVLKVGEKLKLVPGHCDPTANVHDWYVGVRNGKVETLWPVSARGKAY”, the “soluble on expression in E. coli” value was “not soluble”. For “GSHMEEPSDLEELEQFAKTFKQRRIKLGFTQGDVGLAMGKLYGNDFSQTTISRFEALNLSFKNMAKLKPLLEKWLNDAENLSSDSSLSSPSALNSPGIEGLSERRKKRTSIETNIRVALEKSFLENQKPTSEEITMIADQLNMEKEVIRVWFCNRRQKEKRINPPSS”, the “soluble on expression in E. coli” value was “soluble”. In the case of “QLERGQEKQALEQAILARTDAPYQSLASVLDNNDWREESVIGVKVQAEAKPEPLPVVLLDNQTFQGKVGYLAYQVVSVGQDPITLALLELGFVEGLRTRDSLPTVTTLTSPTNVTGRLYRKSMNPLSSELMPEMGEGIRVQNLNISELNELLNVELMPAVLQPDNLENWAYPFPWNPLPLTSAKHFGYAVQ”, the “soluble on expression in E. coli” value is reported as “not soluble”. For “MGSDKIHHHHHHMLNEIITIYAITDDLLKAIGHDDDIRRDMIDAEIITTALVAAMFFNGNHSKACAYMKDHKLIPNMLEKSRFNLRLHNLSMLLNDLFHQIGMIIKEISDSTEYLLDSFPVTICDNIRIFQVHLIQSEEYRGYIASKKRYFYGVRVQLISTKSGIPVEFAFLPGSANDVRGLNALPFNLPPGSEVYADAAYTDYTVEDDMAQSSQISLKVMRKKNSKRQDQPWNQYVKQYTRHYIETVFSCITCIFPKSIHAVTYEGFLLKLQAFIFAFTLKSAFM”, the “soluble on expression in E. coli” value was “not soluble”. With “LFPSFLKPLAAHALELALNRLLTLDPDTSQALRTLDGQCIALSLKTPAVELQIRVDGECLRVGPVDAAYEMDLKVHGTLAGFLGQLPWLEQVRRAGGAQTGRLRVAGDAELAQRLQQLARRFDPDWQQPFIVVFGELLGVQIAGVLRMTLRQLQRSAVDLAQSAAEFITEESSSVVPRAELEAFYEDVDVLRDDVERLATRLMKLCSEMAA” the “soluble on expression in E. coli” value was “not soluble”. With “MISPSKKRTILSSKNINQKPRAVVKGNELRSPSKRRSQIDTDYALRRSPIKTIQISKAAQFMLYEETAEERNIAVHRHNEIYNNNNSVSNENNPSQVKENLSPAKICPYERAFLREGGRIALKDLSVDEFKGYIQDPLTDETIPLTLPLGDKKISLPSFITPPRNSKISIFFTSKHQGQNPETKISRSTDDVSEKKVVRKLSFHVYEDE” the “soluble on expression in E. coli” value was “not soluble”. In the case of “MNTAQLTSKQTLSYVEQTALVLLGMGEDAAAKVLQHFTRDETQRVTRAMAKLNGIKSDSARGVIQNFFEDFREHSGIRGASKEYLSNTLRKALGNDLAKGLLNNLYGDEIRNNMQRLQWVEAETLARFIVNEHPQMQAIFLAYLPADSSSAVLKHLPQDYHDEIIFRIAQLQDIDHQVATDLHELVERCIEKVSASQSVPLSGVKQAADIINRFEGDRGSLMEMLKLHDEEVVNAIEEN”, the “soluble on expression in E. coli” value is reported as “not soluble”. For “MKFVDEASILVVAGDGGNGCVSFRREKYIPKGGPDGGDGGDGGDVWMEADENLNTLIDYRFEKSFRAERGQNGASRDCTGKRGKDVTIKVPVGTRVIDQGTGETMGDMTKHGQRLLVAKGGWHGLGNTRFKSSVNRTPRQKTNGTPGDKRELLLELMLLADVGMLGMPNAGKSTFIRAVSAAKPKVADYPFTTLVPSLGVVRMDNEKSFVVADIPGLIEGAAEGAGLGIRFLKHLERCRVLLHLIDIDPIDGTDPVENARIIISELEKYSQDLATKPRWLVFNKIDLLDKVEAEEKAKAIAEALGWEDKYYLISAASGLGVKDLCWDVMTFIIENPVVQAEEAKQPEKVEFMWDDYHRQQLEEIAEEDDEDWDDDWDEDDEEGVEFIYKR”, the “soluble on expression in E. coli” value was “soluble”. With “YNIYNNPKEANNRKDTVLYLMHKHNRINDKQYADAKKIDLKANLVERTKKERQVTGNEKNPEYDSYVNFVQSELMNNKYFKDKNLGSVLQSG” the “soluble on expression in E. coli” value was “not soluble”. For “MSRVKLGHHYYYIVTPQDLRDGKYKGKNIVIEGEIKDKPIIEFLPMELPSYRTIFRVSGFKVEFSGTPNVRMGEKVKVYGVFVGDGIIARAIETEGAIYITEE”, the “soluble on expression in E. coli” value was “soluble”. In the case of “MAHHHHHHMSSKGAAMTPNGNGATHESRPGKKGRPPRRRADREAAGAHFDCGSSQTTEKGGDEYQYKHPKPRVLTSSLFMWEHVAVFSMPAQVAELERVSRDVARLLEDSNTGTHPMQRYWNAQWSRMVWREEELPDEKKYLAPTMLTRSDGKRKWKNVFVQEYPLYLKRVYQGKGVCNNAVNAAKVLFNRQVLNAAKTAAELERMELTVEEARVKEQKKRGVDVEFEETPDTAPSPPWLGCHHGSYPEKGERERHEKGRPRAVKKASHETYTRSDYKEDYRTGDRKGKHKKGGTGRWSKFDDFGDYDY”, the “soluble on expression in E. coli” value is reported as “not soluble”. For “MGLIKENRMDSLKVSDYMTLQAVTFSPDMSLSAALEKVVRSDNMGGPVIDAQRHVIGFLSEQDLLDKLVHASYHCQDAHLVSDCMHKEVLSVAPETSIIELAAMMKVGKPKMYPVVSDGKLVGVITRRDVLRALSKTLTNCFQHPV”, the “soluble on expression in E. coli” value was “not soluble”.
